Assay results: patent publication US20050191293A1 (Bristol-Myers Squibb, published 2005)

T1: human ITAC (interferon-inducible T cell alpha chemoattractant) (human, UniProt O14625 22-94)
T1 sequence: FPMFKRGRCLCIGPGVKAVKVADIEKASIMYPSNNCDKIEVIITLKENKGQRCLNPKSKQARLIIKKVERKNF

T2: rhesus monkey IP-10 (rhesus monkey, UniProt Q8MIZ1 22-98)
T2 construct: Made by recombinant expression and purified by standard methods; also called Rhesus IP-10; rrmIP-10
T2 sequence: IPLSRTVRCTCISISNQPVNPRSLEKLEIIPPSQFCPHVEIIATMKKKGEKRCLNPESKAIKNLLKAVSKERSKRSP

T3: mouse IP-10 (mouse, UniProt P17515 22-98)
T3 construct: Bought (PeproTech 250-16)
T3 sequence: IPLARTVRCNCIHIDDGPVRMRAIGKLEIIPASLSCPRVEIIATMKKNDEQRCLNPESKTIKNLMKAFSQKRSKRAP

T4: human MIG (monokine induced by gamma interferon) (human, UniProt Q07325 23-125)
T4 construct: Bought (PeproTech 300-26; R&D Systems for the migration assay)
T4 sequence: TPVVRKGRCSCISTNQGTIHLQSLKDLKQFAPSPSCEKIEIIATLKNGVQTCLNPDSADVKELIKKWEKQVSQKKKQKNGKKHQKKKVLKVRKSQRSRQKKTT


Legend:
[1] = biological target: T1, human ITAC (interferon-inducible T cell …); assay: SPR (Biacore), antigen on CM5 chip, 25 C
Procedure: (§1) The flow was then stopped and dissociation was monitored for 5 minutes. The association and dissociation curves were fit to a Langmuir binding model using BIAevaluation software (Biacore AB).

[2] = biological target: T5, human IP-10 (interferon gamma inducible protein 10) (human, UniProt P02778 22-98); assay: inhibition of 0.100 nM 125I-IP-10 binding to CXCR3-expressing 300.19 cells
T5 construct: Native IP-10 from THP-1 supernatant and from MS patient CSF in the migration assays is also put under this molecule; also called CXCL10; rhIP-10
Procedure: The cells were grown in RPMI media containing 10% FCS and G418 selection. Prior to use, the cells were washed twice with Hank's Balanced Salt Solution (HBSS) at 4° C. and adjusted to 4×10⁷ cells/ml. Glass fiber plates (Millipore MultiScreen®, Cat. #MAFBNOB50) were blocked with 200 μl of a 0.1% polyethyleneimine solution one day prior to the experiment. On the day of the study, the blocking buffer was aspirated by using a Millipore manifold. The plates were washed three times with 200 μl of binding buffer (50 mM HEPES, pH 7.2, 1 mM CaCl₂, 5 mM MgCl₂, 0.5% BSA). […] The plates were incubated on a plate shaker for 60 minutes at room temperature and washed three times with wash buffer (10 mM HEPES, pH 7.2, 0.5 M NaCl, 0.5% BSA) at a volume of 200 μl per wash. The plates were dried, 25 μl of scintillant was added and the plates were counted on a Wallac Microbeta Counter. Data were analyzed using Prism software and a KD was calculated.
Competition assays were run in a similar manner to the experiment described above. […] Lastly, 25 μl of cells at a density of 1×10⁶ cells per well were added and the plates were incubated on a plate shaker for 60 minutes at room temperature, washed and counted as described above. EC₅₀ values were calculated using Prism software. Kᵢ values (in nM) were determined using the formula: […]

[3] = biological target: T5, human IP-10 (interferon gamma inducible …); assay: cell-based or functional assay
[4] = biological target: T5, human IP-10 (interferon gamma inducible …); assay: SPR (Biacore), human IP-10 on CM5 chip, 37 C
Procedure: (§2) Binding was measured by flowing the antibody in HBS EP buffer (provided by Biacore AB) at concentrations from 33-267 nM at a flow rate of 40 μl/min. The antigen-antibody association kinetics was followed for 5 minutes and the dissociation kinetics was followed for 8 minutes. The association and dissociation curves were fit to a 1:1 Langmuir binding model using BIAevaluation software (Biacore AB). Data corresponding to the initial few dozen seconds for association and dissociation phases alone were considered for curve fitting to minimize the effect of avidity. The experiments were performed at both 25° C. and 37° C.

[5] = biological target: T5, human IP-10 (interferon gamma inducible …); assay: SPR (Biacore), human IP-10 on CM5 chip, 25 C
Procedure: as §2

[6] = biological target: T2, rhesus monkey IP-10; assay: SPR (Biacore), antigen on CM5 chip, antibody 133 nM, 25 C
Procedure: as §1

[7] = biological target: T3, mouse IP-10; assay: as above
Procedure: as §1

[8] = biological target: T5, human IP-10 (interferon gamma inducible …); assay: SPR (Biacore), extension of dissociation curve, 25 C
Procedure: as §2
(§3) The values were determined by extension of the dissociation curves to get to the time required for the 50% reduction of the Y-axis of the dissociation sensogram.

[9] = biological target: T2, rhesus monkey IP-10; assay: ELISA, plate coated with 1 ug/ml antigen
Procedure: (§4) The plates were washed with PBS/Tween and then incubated with a goat-anti-human IgG Fc polyclonal antibody conjugated with horseradish peroxidase (HRP) for 1 hour at room temperature. After washing, the plates were developed with ABTS substrate (Sigma, A-1888, 0.22 mg/ml) and analyzed by spectrophotometer at OD 415-495.

[10] = biological target: T3, mouse IP-10; assay: ELISA, plate coated with 1 ug/ml antigen
Procedure: as §4

[11] = biological target: T5, human IP-10 (interferon gamma inducible …); assay: ELISA, plate coated with 1 ug/ml antigen
Procedure: as §4

[12] = biological target: T4, human MIG (monokine induced by gamma …); assay: ELISA, plate coated with 1 ug/ml antigen
Procedure: as §4

[13] = biological target: T5, human IP-10 (interferon gamma inducible …); assay: SPR (Biacore), extension of dissociation curve, 37 C
Procedure: as §2, §3

[14] = biological target: T4, human MIG (monokine induced by gamma …); assay: SPR (Biacore), antigen on CM5 chip, antibody 133 nM, 25 C
Procedure: as §1

[15] = biological target: T5, human IP-10 (interferon gamma inducible …); assay: cell-based or functional assay; remark: listed apart in the source
[16] = biological target: T2, rhesus monkey IP-10; assay: cell-based or functional assay
[17] = biological target: T5, human IP-10 (interferon gamma inducible …); assay: cell-based or functional assay; remark: listed apart in the source

T5 sequence (P02778 other isoform, or with tags, fused parts or gaps limits assumed): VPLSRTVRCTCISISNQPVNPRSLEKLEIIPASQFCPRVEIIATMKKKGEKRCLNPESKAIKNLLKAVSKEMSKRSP

Binder	binding result [1]	Ki [2]	IC50 (nM) for 300.19 Cells: inhibition of IP-10-induced calcium flux in 300.19 cells transfected to express CXCR3 [3]	IC50 (nM) for HPBL: inhibition of IP-10-induced calcium flux in anti-CD3 activated human PBLs that express CXCR3 [3]	Kd [4]	koff [4]	kon [4]	Kd [5]	koff [5]	kon [5]	Kd [6]	Half-life (dissociation of half of the antibody-antigen complex) [8]	EC50 [9]	binding result [10]	EC50 [11]	EC50 [12]	Half-life (dissociation of half of the antibody-antigen complex) [13]	Kd [14]	rrmIP-10 IC50: inhibition of migration of CXCR3-expressing 300.19 cells induced by 100 ng/ml recombinant rhesus macaque IP-10 [16]	THP-1 IP-10 IC50: inhibition of migration of CXCR3-expressing 300.19 cells induced by native IP-10 in THP-1 supernatant, MIG blocked by anti-MIG [17]	other results
7C10 human monoclonal antibody (antibody, V domains shown, Human IgG with kappa light chain from a hybridoma of transgenic mice) VH: QVQLVESGGGVVQPGRSLRLSCAASGFTFSNSGMHWVRQAPGKGLEWVAVIDYDGIIQYYADSVKGRFTISRDNSKNTLYLQINSLRAEDTAVYYCATERGTHYYGSGSFDYWGQGTLVTVSS VL: DIQMTQSPSSLSASVGDRVTITCRASQGISSWLAWYQQKPEKAPKSLIYAASSLQSGVPSRFSGSGSGTDFTLTISSLQPEDFATYYCQQYNSYPPTFGGGTKVEIK	no binding (tested: 133 nM)	0.41 nM	0.77 nM	8.15 nM	0.016 nM	8e-07 s⁻¹	52700 M⁻¹ s⁻¹	0.02 nM	4e-07 s⁻¹	17000 M⁻¹ s⁻¹	4.4 nM	–	–	–	–	–	–	–	–	–	Kd [7]: 464 nM
10A12 human monoclonal antibody (antibody, V domains shown, Human IgG with kappa light chain from a hybridoma of transgenic mice) VH: QVQLVESGGGVVQPGRSLRLSCAASGFTFSNCGMHWVRQAPGKGLEWVALIGFDGINEYYADSVKGRFTISRDNSKNTLYLQMNSLRAEDTAVYYCARDWPEGYYNGMDVWGQGTTVTVSS VL: not shown	no binding (tested: 133 nM)	0.09 nM	0.18 nM	1.25 nM	0.34 nM	3.81e-05 s⁻¹	111000 M⁻¹ s⁻¹	0.53 nM	2.02e-05 s⁻¹	38300 M⁻¹ s⁻¹	0.71 nM	9.53 h	0.08 µg/mL	no binding	0.04 µg/mL	0.18 µg/mL	5.05 h	161 nM	–	–	–
10A12S (10A12 with cysteine 32 of VH CDR1 mutated to serine) (antibody, V domains shown) VH: QVQLVESGGGVVQPGRSLRLSCAASGFTFSNSGMHWVRQAPGKGLEWVALIGFDGINEYYADSVKGRFTISRDNSKNTLYLQMNSLRAEDTAVYYCARDWPEGYYNGMDVWGQGTTVTVSS VL: not shown	no binding (tested: 133 nM)	0.06 nM	0.08 nM	2.31 nM	0.49 nM	4.43e-05 s⁻¹	91000 M⁻¹ s⁻¹	0.88 nM	3.24e-05 s⁻¹	36800 M⁻¹ s⁻¹	1.21 nM	5.94 h	0.0156 µg/mL	no binding	0.0049 µg/mL	0.38 µg/mL	4.34 h	722 nM	15.1 µg/mL	0.211 µg/mL	Expt. 1 IC50: inhibition of MS-CSF induced migration of CXCR3-expressing 300.19 cells, MIG neutralized by anti-MIG [15]: 0.562 µg/mL; Expt. 2 IC50: inhibition of MS-CSF induced migration of CXCR3-expressing 300.19 cells, MIG neutralized by anti-MIG [15]: 0.577 µg/mL; rhIP-10 IC50: inhibition of migration of CXCR3-expressing 300.19 cells induced by 100 ng/ml recombinant human IP-10 [17]: 0.115 µg/mL
8F6 human monoclonal antibody (antibody, V domains shown, Human IgG with kappa light chain from a hybridoma of transgenic mice) VH: QVQLVDSGGGVVQPGRSLRLSCAASGFTFNTYGMHWVRQAPGKGLEWVAVISYDGIIKHYADSVKGRFTITRDNSKNMVHLQMNSLRAEDTAVYYCARDSSSWYVYFDYWGQGTLVTVSS VL: EIVLTQSPATLSLSPGERATLSCRASQSVSSYVAWYQQKPGQAPRLLIYDASNRATGIPARFSGSGSGTDFTLTISSLEPEDFAIYYCQQRSNSPPWTFGQGTKVEIK	no binding (tested: 133 nM)	0.16 nM	0.3 nM	6.27 nM	0.78 nM	0.00027 s⁻¹	347000 M⁻¹ s⁻¹	0.81 nM	0.00019 s⁻¹	233000 M⁻¹ s⁻¹	0.81 nM	1.01 h	0.031 µg/mL	no binding	0.09 µg/mL	–	0.71 h	–	0.1 µg/mL	0.173 µg/mL	binding result [12]: no binding; rhIP-10 IC50: inhibition of migration of CXCR3-expressing 300.19 cells induced by 100 ng/ml recombinant human IP-10 [17]: 0.355 µg/mL
